In patent US20200270347A1 (Hoffmann-La Roche, published 2020):

Experiments:
[1] = target: T1, wild-type EGFR on MKN-45 cells (human, UniProt P00533 25-1210); assay: flow cytometry on MKN-45 cells (wild-type EGFR), IgG PGLALA
T1 construct: MKN-45 is the wild-type EGFR line used to exclude crossreactivity; also called EGFRwt

[2] = target: T2, EGFRvIII-ECD avi his (human); assay: SPR, PGLALA IgG captured with anti-PGLALA antibody, EGFRvIII-ECD avi his as analyte, 1:1 Langmuir, 25° C.
T2 construct: Extracellular domain of human EGFRvIII fused to an Avi-tag and a His-tag at the C-terminus; the entry is the whole construct; also called recombinant EGFRvIII; EGFRvIII antigen

[3] = target: EGFRwt ECD antigen (His-tagged, captured with anti-His) (human, UniProt P00533 25-645); assay: SPR, ECD antigen captured with anti-His, single injection of antibody at 500 nM
[4] = target: T2, EGFRvIII-ECD avi his; assay: as above
[5] = target: T3, EGFRvIII expressed on the cell surface (CHO-EGFRvIII, DK-MG, U87MG-EGFRvIII cells) (human, UniProt P00533 298-1210); assay: flow cytometry on U87MG-EGFRvIII cells, IgG PGLALA
T3 construct: The cell line of each result is named under assay; Species is stated for the U87 transfectant (human EGFRvIII protein) and the entry; also called EGFRvIII positive cells

[6] = target: T4, recombinant TYRP1 (Sino Biologicals) (human, UniProt P17643 25-477, limits assumed); assay: SPR, relative active concentration as for CD3, with recombinant TYRP1 (Sino Biologicals) as antigen; sample: 14d pH 7.4, 37°C
T4 construct: Bought protein; also called human TYRP1

[7] = target: T4, recombinant TYRP1 (Sino Biologicals); assay: SPR, relative active concentration as for CD3, with recombinant TYRP1 (Sino Biologicals) as antigen; sample: unstressed
[8] = target: T5, heterodimer of human CD3 delta and CD3 epsilon ectodomains fused to a human Fc domain with knob-into-hole … (human); assay: SPR, TCB captured with anti-PGLALA antibody, CD3 antigen as analyte, 1:1 Langmuir
T5 construct: Each entry is the whole fusion chain (ectodomain, stalk, Fc, Avi-tag); also called recombinant CD3; recombinant human CD3

[9] = target: T6, heterodimer of cynomolgus CD3 delta and CD3 epsilon ectodomains fused to a human Fc domain with … (cynomolgus); assay: as above
T6 construct: Each entry is the whole fusion chain; also called Cynomolgus CD3 epsilon stalk-Fc(knob)-Avi / Cynomolgus CD3 delta stalk-Fc(hole)-Avi

[10] = target: T5, heterodimer of human CD3 delta and CD3 …; assay: SPR, relative active concentration after stress
[11] = target: T4, recombinant TYRP1 (Sino Biologicals); assay: SPR, relative active concentration as for CD3, with recombinant TYRP1 (Sino Biologicals) as antigen; sample: 14d pH 6.0, 40°C
[12] = target: TYRP1 on the melanoma cell line M150543 (human, UniProt P17643 25-537); assay: cell-based or functional assay
[13] = target: T7, human CD3 expressed on Jurkat NFAT reporter cells (human, UniProt P07766 23-207); assay: flow cytometry on Jurkat NFAT cells, PE-labelled anti-human Fc secondary antibody
T7 construct: CD3 complex on cells; also called CD3 on Jurkat cells; CD3 expressing cells
T7 sequence (P07766 23-207 limits assumed): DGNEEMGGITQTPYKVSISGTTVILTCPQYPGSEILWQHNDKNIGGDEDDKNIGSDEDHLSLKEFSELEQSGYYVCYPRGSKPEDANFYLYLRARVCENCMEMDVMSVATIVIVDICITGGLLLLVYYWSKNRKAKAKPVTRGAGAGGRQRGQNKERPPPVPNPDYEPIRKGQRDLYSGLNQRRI

[14] = target: Mouse TYRP1 ECD-Fc(knob)-Avi / Fc(hole) (mouse, UniProt P01857 104-328 = IgG part); assay: SPR, TYRP1 ECD-Fc captured with anti-PGLALA antibody, Fab as analyte, 1:1 Langmuir; mouse TYRP1
[15] = target: T8, Human TYRP1 ECD-Fc(knob)-Avi / Fc(hole) (human, UniProt P01857 104-328 = IgG part); assay: SPR, TYRP1 ECD-Fc captured with anti-PGLALA antibody, Fab as analyte, 1:1 Langmuir; human TYRP1
T8 construct: Fc with knob-into-hole and PG LALA modifications, C-terminal Avi-tag; also called monomeric fusion of the human TYRP1 extracellular domain to a human Fc-domain

[16] = target: Cynomolgus TYRP1 ECD-Fc(knob)-Avi / Fc(hole) (cynomolgus, UniProt P01857 104-328 = IgG part); assay: SPR, TYRP1 ECD-Fc captured with anti-PGLALA antibody, Fab as analyte, 1:1 Langmuir; cynomolgus TYRP1

B1: EGFRvIII antibody P063.056 IgG1 PGLALA (antibody, V domains shown)
VH: EVQLVQSGAEVKKPGESLKISCKGSGYSFDSYWIAWVRQMPGKGLEWMGVIHPYDSDTRYSPSFQGQVTISADKSISTAYLQWSSLKASDTAMYYCARVSRSSYAFDYWGQGTLVTVSS
VL: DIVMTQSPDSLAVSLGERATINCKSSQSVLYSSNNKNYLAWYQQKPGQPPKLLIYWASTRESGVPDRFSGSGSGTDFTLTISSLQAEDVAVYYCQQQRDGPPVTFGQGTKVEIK
notes: Anti-EGFRvIII PGLALA IgG (human IgG1)
binding result [1]: no binding (tested: about 140 nM)
Kd [2]: 10 nM
response units [3]: < 5 RU
response units [4]: > 50 RU

B2: EGFRvIII antibody P064.078 IgG1 PGLALA (antibody, V domains shown)
VH: EVQLVQSGAEVKKPGESLKISCKGSGYSFDSYWIAWVRQMPGKGLEWMGVIHPYDSDTRYSPSFQGQVTISADKSISTAYLQWSSLKASDTAMYYCARVSRLSYALDYWGQGTLVTVSS
VL: not shown
notes: as for B1
EC50 (read off the curve) [5]: ~3 nM
Kd [2]: 15 nM
response units [3]: > 5 RU
response units [4]: > 50 RU

B3: EGFRvIII antibody P065.036 IgG1 PGLALA (antibody, V domains shown)
VH: EVQLVQSGAEVKKPGESLKISCKGSGYSFDSYWIAWVRQMPGKGLEWMGVIHPYDSDTRYSPSFQGQVTISADKSISTAYLQWSSLKASDTAMYYCARVSRSSYALDYWGQGTLVTVSS
VL: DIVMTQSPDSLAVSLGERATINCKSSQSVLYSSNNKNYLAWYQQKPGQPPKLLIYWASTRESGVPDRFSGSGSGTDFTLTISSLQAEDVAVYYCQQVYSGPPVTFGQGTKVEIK
notes: as for B1
Kd [2]: 10 nM
response units [3]: > 5 RU
response units [4]: > 50 RU

B4: TYRP1 TCB CD3opt (bispecific antibody, human IgG1, kappa, L234A L235A)
heavy 1: not shown
heavy 2: QVQLVQSGAEVKKPGASVKVSCKASGFNIKDYFLHWVRQAPGQGLEWMGWINPDNGNTVYAQKFQGRVTMTADTSTSTVYMELSSLRSEDTAVYYCTRRDYTYEKAALDYWGQGTLVTVSSASTKGPSVFPLAPSSKSTSGGTAALGCLVEDYFPEPVTVSWNSGALTSGVHTFPAVLQSSGLYSLSSVVTVPSSSLGTQTYICNVNHKPSNTKVDEKVEPKSCDKTHTCPPCPAPEAAGGPSVFLFPPKPKDTLMISRTPEVTCVVVDVSHEDPEVKFNWYVDGVEVHNAKTKPREEQYNSTYRVVSVLTVLHQDWLNGKEYKCKVSNKALGAPIEKTISKAKGQPREPQVCTLPPSRDELTKNQVSLSCAVKGFYPSDIAVEWESNGQPENNYKTTPPVLDSDGSFFLVSKLTVDKSRWQQGNVFSCSVMHEALHNHYTQKSLSLSP
light 1: DIQMTQSPSSLSASVGDRVTITCRASGNIYNYLAWYQQKPGKVPKLLIYDAKTLADGVPSRFSGSGSGTDFTLTISSLQPEDVATYYCQHFWSLPFTFGQGTKLEIKRTVAAPSVFIFPPSDRKLKSGTASVVCLLNNFYPREAKVQWKVDNALQSGNSQESVTEQDSKDSTYSLSSTLTLSKADYEKHKVYACEVTHQGLSSPVTKSFNRGEC
light 2: EVQLLESGGGLVQPGGSLRLSCAASGFQFSSYAMNWVRQAPGKGLEWVSRIRSKYNNYATYYADSVKGRFTISRDDSKNTLYLQMNSLRAEDTAVYYCVRHTTFPSSYVSYYGYWGQGTLVTVSSASVAAPSVFIFPPSDEQLKSGTASVVCLLNNFYPREAKVQWKVDNALQSGNSQESVTEQDSKDSTYSLSSTLTLSKADYEKHKVYACEVTHQGLSSPVTKSFNRGEC
notes: two TYRP1 Fabs, one CD3opt crossover Fab
Tyrp1 Binding Activity (%) [6]: 101%
Tyrp1 Binding Activity (%) [7]: 100%
Kd [8]: 50 nM
Kd [9]: 20 nM
binding activity to CD3 after 2 weeks at pH 7.4, 37° C., relative to 2 weeks at pH 6, -80° C. [10]: > 90%
Tyrp1 Binding Activity (%) [11]: 101%
EC50 of tumor cell killing at 48 h (LDH release), PBMC donor 1 [12]: 0.31 nM
EC50 of tumor cell killing at 48 h (LDH release), PBMC donor 2 [12]: 0.03 nM
EC50 of tumor cell killing at 48 h (LDH release), PBMC donor 3 [12]: 0.08 nM

B5: TYRP1 TCB CD3orig (bispecific antibody, human IgG1, kappa, L234A L235A)
heavy 1: not shown
heavy 2: QVQLVQSGAEVKKPGASVKVSCKASGFNIKDYFLHWVRQAPGQGLEWMGWINPDNGNTVYAQKFQGRVTMTADTSTSTVYMELSSLRSEDTAVYYCTRRDYTYEKAALDYWGQGTLVTVSSASTKGPSVFPLAPSSKSTSGGTAALGCLVEDYFPEPVTVSWNSGALTSGVHTFPAVLQSSGLYSLSSVVTVPSSSLGTQTYICNVNHKPSNTKVDEKVEPKSCDKTHTCPPCPAPEAAGGPSVFLFPPKPKDTLMISRTPEVTCVVVDVSHEDPEVKFNWYVDGVEVHNAKTKPREEQYNSTYRVVSVLTVLHQDWLNGKEYKCKVSNKALGAPIEKTISKAKGQPREPQVCTLPPSRDELTKNQVSLSCAVKGFYPSDIAVEWESNGQPENNYKTTPPVLDSDGSFFLVSKLTVDKSRWQQGNVFSCSVMHEALHNHYTQKSLSLSP
light 1: DIQMTQSPSSLSASVGDRVTITCRASGNIYNYLAWYQQKPGKVPKLLIYDAKTLADGVPSRFSGSGSGTDFTLTISSLQPEDVATYYCQHFWSLPFTFGQGTKLEIKRTVAAPSVFIFPPSDRKLKSGTASVVCLLNNFYPREAKVQWKVDNALQSGNSQESVTEQDSKDSTYSLSSTLTLSKADYEKHKVYACEVTHQGLSSPVTKSFNRGEC
light 2: EVQLLESGGGLVQPGGSLRLSCAASGFTFSTYAMNWVRQAPGKGLEWVSRIRSKYNNYATYYADSVKGRFTISRDDSKNTLYLQMNSLRAEDTAVYYCVRHGNFGNSYVSWFAYWGQGTLVTVSSASVAAPSVFIFPPSDEQLKSGTASVVCLLNNFYPREAKVQWKVDNALQSGNSQESVTEQDSKDSTYSLSSTLTLSKADYEKHKVYACEVTHQGLSSPVTKSFNRGEC
notes: 2+1 IgG CrossFab, inverted, with charge modifications
Tyrp1 Binding Activity (%) [6]: 103%
Tyrp1 Binding Activity (%) [7]: 100%
Kd [8]: 50 nM
Tyrp1 Binding Activity (%) [11]: 98%
EC50 of tumor cell killing at 48 h (LDH release), PBMC donor 1 [12]: 0.44 nM
EC50 of tumor cell killing at 48 h (LDH release), PBMC donor 2 [12]: 0.05 nM
EC50 of tumor cell killing at 48 h (LDH release), PBMC donor 3 [12]: 0.14 nM

B6: CD3opt human IgG1 PGLALA (antibody, V domains shown)
VH: EVQLLESGGGLVQPGGSLRLSCAASGFQFSSYAMNWVRQAPGKGLEWVSRIRSKYNNYATYYADSVKGRFTISRDDSKNTLYLQMNSLRAEDTAVYYCVRHTTFPSSYVSYYGYWGQGTLVTVSS
VL: QAVVTQEPSLTVSPGGTVTLTCGSSTGAVTTSNYANWVQEKPGQAFRGLIGGTNKRAPGTPARFSGSLLGGKAALTLSGAQPEDEAEYYCALWYSNLWVFGGGTKLTVLR
notes: Human IgG1 format with P329G L234A L235A (PGLALA); also called CD3opt IgG PGLALA
EC50 (read off the curve) [13]: ~0.5 nM
binding activity to CD3 after 2 weeks at pH 7.4, 37° C., relative to 2 weeks at pH 6, -80° C. [10]: > 90%

B7: CD3orig human IgG1 PGLALA (antibody, V domains shown)
VH: not shown
VL: QAVVTQEPSLTVSPGGTVTLTCGSSTGAVTTSNYANWVQEKPGQAFRGLIGGTNKRAPGTPARFSGSLLGGKAALTLSGAQPEDEAEYYCALWYSNLWVFGGGTKLTVLR
notes: Human IgG1 format with P329G L234A L235A (PGLALA) in the Fc by the text; also called CD3orig IgG PGLALA
EC50 (read off the curve) [13]: ~0.8 nM

B8: TYRP1 IgG (antibody, V domains shown)
VH: QVQLVQSGAEVKKPGASVKVSCKASGFNIKDYFLHWVRQAPGQGLEWMGWINPDNGNTVYAQKFQGRVTMTADTSTSTVYMELSSLRSEDTAVYYCTRRDYTYEKAALDYWGQGTLVTVSS
VL: DIQMTQSPSSLSASVGDRVTITCRASGNIYNYLAWYQQKPGKVPKLLIYDAKTLADGVPSRFSGSGSGTDFTLTISSLQPEDVATYYCQHFWSLPFTFGQGTKLEIK
notes: IgG format; constant regions not specified
Tyrp1 Binding Activity (%) [6]: 101%
Tyrp1 Binding Activity (%) [7]: 100%
Tyrp1 Binding Activity (%) [11]: 97%

B9: TYRP1 Fab fragment (humanized TA99 TYRP1 binder) (Fab, V domains shown)
VH: QVQLVQSGAEVKKPGASVKVSCKASGFNIKDYFLHWVRQAPGQGLEWMGWINPDNGNTVYAQKFQGRVTMTADTSTSTVYMELSSLRSEDTAVYYCTRRDYTYEKAALDYWGQGTLVTVSS
VL: DIQMTQSPSSLSASVGDRVTITCRASGNIYNYLAWYQQKPGKVPKLLIYDAKTLADGVPSRFSGSGSGTDFTLTISSLQPEDVATYYCQHFWSLPFTFGQGTKLEIK
notes: Fab prepared by plasmin digestion of the corresponding antibody; also called TYRP1 Fab fragments
Kd [14]: 0.53 nM
Kd [15]: 0.13 nM
Kd [16]: 0.18 nM
